Test results published in patent US20200239578A1 (Eli Lilly, published 2020).
Changes are numbered by the printed parent chain.

B1: Antibody 25F7 (antibody, human IgG4 S228P, kappa, F234A L235A, V domains shown)
VH: QVQLVQSGAEVKKPGASVKVSCKASGFSLSTYAMNWVRQAPGQGLEWMGIISDDGTTYYATWAKGRVTMTRDTSTSTVYMELSSLRSEDTAVYYCARDAGAGGVQDYLTLWGQGTLVTVSS
VL: DIVMTQSPDSLAVSLGERATINCQASENIYNFLAWYQQKPGQPPKLLIYSASTLASGVPDRFSGSGSGTDFTLTISSLQAEDVAVYYCQQGSSNSNIDNPFGGGTKVEIKR
notes: also called BTLA agonist antibody 25F7
B2: Antibody 23C8 (antibody, human IgG4 S228P, kappa, F234A L235A, V domains shown)
VH: EVQLVESGGGLVQPGGSLRLSCAASGFDISKYNIQWVRQAPGKGLEWVGFINYGGSAYYASRAKGRFTISRDDSKNSLYLQMNSLKTEDTAVYYCARGLSNSDLWGQGTLVTVSS
VL: DIQMTQSPSSLSASVGDRVTITCQASQSISSWLSWYQQKPGKAPKLLIYRASTLASGVPSRFSGSGSGTDFTFTISSLQPEDIATYYCQSTYGGVVGSTSDDNPFGGGTKVEIKR
notes: also called BTLA agonist antibody 23C8
B3: Antibody 22B3 (antibody, human IgG4 S228P, kappa, F234A L235A, V domains shown)
VH: QVQLVQSGAEVKKPGASVKVSCKASGFSLSSYGVSWVRQAPGQGLEWMGAISYDGITYYASWAKSRVTMTRDTSTSTVYMELSSLRSEDTAVYYCARGDYYDDYVYVYALDIWGQGTLVTVSS
VL: EIVLTQSPGTLSLSPGERATLSCQASQSISTALAWYQQKPGQAPRLLIYAASTLASGIPDRFSGSGSGTDFTLTISRLEPEDFAVYYCQQGYSSSNLDNVFGGGTKVEIKR
notes: also called humanized 22B3; BTLA agonist antibody 22B3

Legend:
[1] = molecular target: T1, cynomolgus monkey BTLA on cyno PBMCs (cynomolgus monkey, UniProt Q7Z6A9 31-289 (human entry)); assay: flow cytometry (FACS) on primary cells
T1 construct: Endogenous BTLA on primary cells; also called cynomolgus monkey BTLA-expressing cells
T1 chain: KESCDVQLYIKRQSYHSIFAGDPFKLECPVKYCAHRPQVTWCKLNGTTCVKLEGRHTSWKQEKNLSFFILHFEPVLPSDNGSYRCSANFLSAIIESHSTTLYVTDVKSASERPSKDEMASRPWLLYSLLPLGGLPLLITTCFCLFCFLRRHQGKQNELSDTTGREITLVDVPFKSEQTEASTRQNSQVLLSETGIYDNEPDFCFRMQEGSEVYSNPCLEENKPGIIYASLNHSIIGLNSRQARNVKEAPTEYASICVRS
Method: (§1) Isolated primary cells are quantified using a Countess cell counter, and resuspended at 2×10⁶ cells per ml in FACS buffer. Flow cytometry experiments is performed the same day as cell isolation by plating 50 μl (˜0.1×10⁶) cells into a 96 well plate (Greiner #650101). Non-specific antibody binding is prevented by adding 1 μl Fc block (for example, from BD #553142) for 15 minutes at 4 ° C. without washing.
(§2) BTLA antibody binding is tested at various concentrations, by serial dilution in FACS buffer. For example, a purified antibody and controls starting at different concentrations are first diluted to 30 μg/mL and serial 1:3 dilutions of the starting material is performed for a total of 10 titrations (plus untreated control). Antibody titrations are incubated with cells for 20 minutes at 4° C., and washed with FACS buffer prior to stain. Cells are stained using fluorochrome-conjugated antibodies to identify specific cell types (eg. CD19 B cells, CD4 T cells or CD8 T cells) or using a secondary antibody to identify the presence or absence of antibody binding to that subset. Staining is performed for 20 minutes at 4° C. and washed 3 times with FACS buffer prior to analysis on a flow cytometer. Results are analyzed using standard FACS analysis software (eg. FACSDiva) and reported as mean fluorescent intensity of the secondary antibody for each titration. A positive result, which indicates binding, is determined by mean fluorescent intensity staining above background.

[2] = molecular target: T2, mouse BTLA on splenocytes of C57BL6 mice (mouse (C57BL6), UniProt Q7TSA3 30-306); assay: flow cytometry (FACS) on primary cells
T2 construct: Endogenous BTLA on primary cells; also called mouse BTLA-expressing cells
T2 sequence: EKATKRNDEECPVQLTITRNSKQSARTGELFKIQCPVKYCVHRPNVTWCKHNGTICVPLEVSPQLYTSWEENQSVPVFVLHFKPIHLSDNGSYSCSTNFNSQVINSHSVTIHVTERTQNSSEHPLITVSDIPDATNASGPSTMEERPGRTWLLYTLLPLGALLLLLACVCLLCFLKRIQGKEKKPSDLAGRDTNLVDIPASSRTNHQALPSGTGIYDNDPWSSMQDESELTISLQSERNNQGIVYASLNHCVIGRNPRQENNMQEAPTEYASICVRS
Method: as §1, §2

[3] = molecular target: T3, human BTLA protein (immobilised on the Biacore chip) (human, UniProt Q7Z6A9 31-150, limits assumed); assay: SPR (Biacore 3000), BTLA amine-coupled to the chip, antibody flowed, 25 C, 1:1 Langmuir fit
T3 construct: also called B and T Lymphocyte Attenuator; CD272
T3 sequence: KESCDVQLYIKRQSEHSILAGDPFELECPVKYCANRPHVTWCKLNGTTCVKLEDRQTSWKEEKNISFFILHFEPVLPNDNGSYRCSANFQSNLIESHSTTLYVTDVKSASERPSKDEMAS
Method: (§3) The binding affinity and kinetics of the BTLA agonist antibodies of the present invention (22B3, 23C8, and 25F7) to BTLA are measured by surface plasmon resonance using Biacore® 3000 (GE Healthcare). […] The experiments are carried out at 25° C. in HBS-EP buffer (GE Healthcare BR100669; 10 mM HEPES, 150 mM NaCl, 3 mM EDTA, 0.05% surfactant P20, pH 7.4). For each cycle, 250 μL antibody sample is flowed through flow cell 1 and 2 at 50 μ1/min, and then dissociated for 10 minutes. The chip surface is regenerated with 5 μL injection of glycine buffer at pH 1.5 at […] flow rate. The data are fit to a 1:1 Langmiur binding model to derive kₒₙ, k_{off,} and to calculate KD. Data shown below are the average of three experiments for human, cyno, rat and murine for 22B3.

[4] = molecular target: T4, murine (C57BL6) BTLA protein (immobilised on the Biacore chip) (mouse (C57BL6), UniProt Q7TSA3 30-183, limits assumed); assay: as above
T4 construct: also called Mouse C57BL6 BTLA
T4 chain: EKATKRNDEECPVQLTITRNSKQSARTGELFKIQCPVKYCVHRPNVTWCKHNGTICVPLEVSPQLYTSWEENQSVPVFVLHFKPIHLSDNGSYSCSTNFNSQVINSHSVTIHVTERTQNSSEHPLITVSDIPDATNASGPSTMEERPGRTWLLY
Method: as §3

[5] = molecular target: human BTLA on human cells (PBMCs, Ramos.2G6.4C10 B cell line, primary B cells) (human, UniProt Q7Z6A9 31-289); assay: cell-based or functional assay
[6] = molecular target: T4, murine (C57BL6) BTLA protein …; assay: SPR (Biacore 3000), BTLA amine-coupled to the chip, antibody flowed
Method: as §3

[7] = molecular target: T5, murine (Balbc) BTLA protein (immobilised on the Biacore chip) (mouse (Balbc), UniProt Q7TSA3 30-183, limits assumed); assay: as above
T5 construct: also called Mouse Balbc BTLA
T5 chain: T4 chain with P12E, T16N, T18K, Q23H, R26W, Q34E, C56W, S62G, Q73R, T114R
Method: as §3

[8] = molecular target: T6, cynomolgus monkey BTLA protein (immobilised on the Biacore chip) (cynomolgus monkey, limits assumed); assay: SPR (Biacore 3000), BTLA amine-coupled to the chip, antibody flowed, 25 C, 1:1 Langmuir fit
T6 construct: also called Cyno BTLA
T6 chain: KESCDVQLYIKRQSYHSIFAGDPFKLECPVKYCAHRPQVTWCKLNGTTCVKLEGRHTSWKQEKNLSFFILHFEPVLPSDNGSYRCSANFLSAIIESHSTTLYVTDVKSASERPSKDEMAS
Method: as §3

[9] = molecular target: T7, rat BTLA protein (immobilised on the Biacore chip) (rat, UniProt Q6PNM1 30-183, limits assumed); assay: as above
T7 sequence (looked up): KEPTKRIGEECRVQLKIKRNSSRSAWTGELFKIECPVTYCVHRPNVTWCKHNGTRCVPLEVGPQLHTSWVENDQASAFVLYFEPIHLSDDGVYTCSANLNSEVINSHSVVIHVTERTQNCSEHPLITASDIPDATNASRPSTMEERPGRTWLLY
Method: as §3

[10] = molecular target: T5, murine (Balbc) BTLA protein …; assay: as above
Method: as §3

Row | Binder | binding result [1] | binding result [2] | Kd [3] [nM] | koff [3] [s⁻¹] | kon [3] [M⁻¹ s⁻¹] | Kd [4] [nM] | koff [4] [s⁻¹] | kon [4] [M⁻¹ s⁻¹] | IC50 of inhibition of human primary B cell proliferation ([3H]-thymidine) [5] [nM] | fold increase in tyrosine phosphorylation of BTLA over background compared to negative control (Ramos B cell line, MSD) [5] [fold] | Kd [8] [nM] | koff [8] [s⁻¹] | kon [8] [M⁻¹ s⁻¹] | also measured
1 | B1 | binds | binds | 206 | 0.0142 | 68600 | 4.63 | 0.00035 | 77000 | 0.17 | 1.47 | – | – | – | –
2 | B2 | binds | – | 1.93 | 0.000293 | 159000 | – | – | – | 0.14 | – | 35.4 | 0.00309 | 87100 | binding result [6]: no binding; binding result [7]: no binding
3 | B3 | binds | binds | 0.365 | 0.00219 | 5.87e+06 | 147 | 0.265 | 1.89e+06 | 0.32 | 2.41 | 0.27 | 0.000647 | 2.45e+06 | Kd [9]: 24.1 nM; koff [9]: 0.0462 s⁻¹; kon [9]: 2.1e+06 M⁻¹ s⁻¹; Kd [10]: 32.5 nM; koff [10]: 0.0858 s⁻¹; kon [10]: 2.6e+06 M⁻¹ s⁻¹; IC50 of inhibition of human primary B cell proliferation ([3H]-thymidine), similar experiment beside Mab8D5 [5]: 0.32 nM
